From patent US20120107324A1

Experiments:
[1] = biological target: β1 chain (integrin β1) (human) (UniProt P05556); assay: FACS on HT29 cells; Gt anti Mouse alone 2.52
[2] = biological target: Macaque β1 chain (Macaque); assay: FACS on macaque T-cells; Goat anti Mouse IgGFc Cy5 alone 2
[3] = biological target: human α5β1 integrin (human) (UniProt P08648); assay: FACS on human α5β1-transfected 300.19 cells, 2.0 ug/mL
[4] = biological target: β1 chain (integrin β1) (human) (UniProt P05556); assay: FACS on HT29 cells, isotype control; human secondary 2.8
[5] = biological target: human α5β1 integrin (human) (UniProt P08648); assay: FACS on human α5β1-transfected against untransfected 300.19 cells, 2.0 ug/mL
Macaque α5β1 (Macaque) [6] = assay: FACS on macaque T-cells, isotype control; Goat anti Human IgG Fc Cy5 alone 3
[7] = biological target: Macaque αv chain (Macaque); assay: FACS on macaque T-cells; Goat anti Mouse IgGFc Cy5 alone 2
αv integrin chain = αv integrin chain (UniProt P06756); assay: FACS on HT29 cells, positive control; Gt anti Mouse alone 2.52
αvβ6 integrin = αvβ6 integrin (UniProt P06756); assay: as above
[8] = biological target: β1 chain (integrin β1) (human) (UniProt P05556); assay: FACS on HT29 cells, isotype control; Gt anti Mouse alone 2.52
Macaque α5β1 (Macaque) [9] = assay: FACS on macaque T-cells, isotype control; Goat anti Mouse IgGFc Cy5 alone 2
[10] = biological target: human α5β1 integrin (human) (UniProt P08648); assay: FACS on human α5β1-transfected 300.19 cells, 0.2 ug/mL
[11] = biological target: human α5β1 integrin (human) (UniProt P08648); assay: FACS on human α5β1-transfected 300.19 cells, 0.02 ug/mL
[12] = biological target: β1 chain (integrin β1) (human) (UniProt P05556); assay: FACS on HT29 cells (α5 null, β1 present); Gt anti Mouse alone 2.52
[13] = biological target: human α5β1 integrin (human) (UniProt P08648); assay: FACS on human α5β1-transfected against untransfected 300.19 cells, 0.2 ug/mL
[14] = biological target: human α5β1 integrin (human) (UniProt P08648); assay: FACS on human α5β1-transfected against untransfected 300.19 cells, 0.02 ug/mL

β1 chain (integrin β1) (human), sequence (P05556 21-798): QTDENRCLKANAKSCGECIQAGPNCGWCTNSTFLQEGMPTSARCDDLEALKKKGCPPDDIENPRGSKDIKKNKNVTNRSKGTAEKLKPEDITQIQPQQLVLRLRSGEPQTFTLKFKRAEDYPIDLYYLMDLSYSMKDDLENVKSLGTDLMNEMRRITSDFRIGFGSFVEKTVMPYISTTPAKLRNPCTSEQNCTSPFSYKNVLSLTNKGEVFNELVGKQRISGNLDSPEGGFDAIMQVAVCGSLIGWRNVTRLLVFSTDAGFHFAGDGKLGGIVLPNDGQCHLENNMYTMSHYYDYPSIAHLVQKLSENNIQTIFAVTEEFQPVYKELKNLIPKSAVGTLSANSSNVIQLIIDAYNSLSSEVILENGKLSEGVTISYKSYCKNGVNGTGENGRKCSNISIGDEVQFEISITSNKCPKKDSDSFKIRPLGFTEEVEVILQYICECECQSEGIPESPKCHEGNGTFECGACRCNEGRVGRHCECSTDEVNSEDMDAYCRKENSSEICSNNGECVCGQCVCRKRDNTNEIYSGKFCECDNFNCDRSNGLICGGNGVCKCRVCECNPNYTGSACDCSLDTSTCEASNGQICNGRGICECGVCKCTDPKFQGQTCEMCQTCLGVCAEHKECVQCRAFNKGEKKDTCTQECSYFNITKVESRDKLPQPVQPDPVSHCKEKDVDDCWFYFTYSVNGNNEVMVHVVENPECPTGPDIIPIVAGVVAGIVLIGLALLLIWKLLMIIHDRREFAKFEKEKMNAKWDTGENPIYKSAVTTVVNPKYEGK
human α5β1 integrin (human), sequence (P08648 42-1049, chain 1 of 2): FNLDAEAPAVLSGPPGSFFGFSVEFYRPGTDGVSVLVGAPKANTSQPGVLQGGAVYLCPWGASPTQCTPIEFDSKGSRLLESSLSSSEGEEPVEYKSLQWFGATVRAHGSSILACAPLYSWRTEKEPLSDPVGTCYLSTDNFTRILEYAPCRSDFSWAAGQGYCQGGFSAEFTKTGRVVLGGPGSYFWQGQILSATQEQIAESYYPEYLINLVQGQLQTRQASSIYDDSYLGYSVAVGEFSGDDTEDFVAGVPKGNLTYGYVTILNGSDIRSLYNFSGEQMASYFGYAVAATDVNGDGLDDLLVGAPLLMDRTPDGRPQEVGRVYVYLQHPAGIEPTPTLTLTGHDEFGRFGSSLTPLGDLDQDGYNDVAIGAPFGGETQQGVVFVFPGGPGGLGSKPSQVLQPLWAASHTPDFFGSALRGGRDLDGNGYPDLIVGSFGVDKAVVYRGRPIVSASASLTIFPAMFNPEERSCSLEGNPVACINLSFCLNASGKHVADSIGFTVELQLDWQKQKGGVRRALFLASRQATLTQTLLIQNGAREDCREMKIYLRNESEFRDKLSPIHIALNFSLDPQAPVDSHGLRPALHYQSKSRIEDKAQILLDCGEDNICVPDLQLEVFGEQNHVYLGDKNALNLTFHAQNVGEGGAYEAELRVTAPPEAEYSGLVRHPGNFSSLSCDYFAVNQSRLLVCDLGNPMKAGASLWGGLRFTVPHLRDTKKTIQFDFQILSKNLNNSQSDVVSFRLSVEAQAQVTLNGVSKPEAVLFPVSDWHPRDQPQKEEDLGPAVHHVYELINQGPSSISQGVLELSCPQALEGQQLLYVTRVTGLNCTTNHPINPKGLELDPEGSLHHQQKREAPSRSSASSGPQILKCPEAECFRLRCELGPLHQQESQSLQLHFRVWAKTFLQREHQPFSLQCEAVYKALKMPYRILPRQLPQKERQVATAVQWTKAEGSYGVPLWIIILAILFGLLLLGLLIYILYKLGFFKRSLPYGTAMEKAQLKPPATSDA
human α5β1 integrin (human), sequence (P05556 21-798, chain 2 of 2, further chain): as the sequence (P05556 21-798) above
αv integrin chain, sequence (P06756 31-1048 limits assumed): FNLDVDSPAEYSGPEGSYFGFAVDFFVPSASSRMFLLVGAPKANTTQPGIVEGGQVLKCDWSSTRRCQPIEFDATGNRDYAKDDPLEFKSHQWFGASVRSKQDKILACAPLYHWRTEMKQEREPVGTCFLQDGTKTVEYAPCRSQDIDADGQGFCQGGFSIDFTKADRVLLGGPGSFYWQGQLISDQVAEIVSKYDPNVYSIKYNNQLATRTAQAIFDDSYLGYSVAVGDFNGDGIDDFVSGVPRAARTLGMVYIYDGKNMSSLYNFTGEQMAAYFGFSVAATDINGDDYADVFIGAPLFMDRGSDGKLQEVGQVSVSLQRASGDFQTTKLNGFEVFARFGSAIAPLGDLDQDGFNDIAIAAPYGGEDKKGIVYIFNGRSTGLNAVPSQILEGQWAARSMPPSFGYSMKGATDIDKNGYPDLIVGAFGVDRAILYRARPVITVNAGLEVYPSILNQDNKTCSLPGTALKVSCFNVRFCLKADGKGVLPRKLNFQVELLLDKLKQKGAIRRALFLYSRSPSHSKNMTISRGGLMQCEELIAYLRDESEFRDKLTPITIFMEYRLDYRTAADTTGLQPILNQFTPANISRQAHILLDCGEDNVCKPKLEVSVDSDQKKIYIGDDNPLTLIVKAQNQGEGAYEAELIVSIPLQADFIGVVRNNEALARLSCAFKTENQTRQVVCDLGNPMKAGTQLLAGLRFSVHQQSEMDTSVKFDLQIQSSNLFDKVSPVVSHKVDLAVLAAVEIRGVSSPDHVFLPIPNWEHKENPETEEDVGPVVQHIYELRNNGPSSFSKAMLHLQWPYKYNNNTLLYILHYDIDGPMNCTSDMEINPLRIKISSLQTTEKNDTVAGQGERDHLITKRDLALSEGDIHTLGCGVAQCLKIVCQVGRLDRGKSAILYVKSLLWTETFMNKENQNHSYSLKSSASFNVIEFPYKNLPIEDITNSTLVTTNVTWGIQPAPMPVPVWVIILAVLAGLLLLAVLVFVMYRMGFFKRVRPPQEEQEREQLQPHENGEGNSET
αvβ6 integrin, sequence (P06756 31-1048, chain 1 of 2): as the sequence (P06756 31-1048 limits assumed) above
αvβ6 integrin, sequence (P18564 22-788, chain 2 of 2, further chain): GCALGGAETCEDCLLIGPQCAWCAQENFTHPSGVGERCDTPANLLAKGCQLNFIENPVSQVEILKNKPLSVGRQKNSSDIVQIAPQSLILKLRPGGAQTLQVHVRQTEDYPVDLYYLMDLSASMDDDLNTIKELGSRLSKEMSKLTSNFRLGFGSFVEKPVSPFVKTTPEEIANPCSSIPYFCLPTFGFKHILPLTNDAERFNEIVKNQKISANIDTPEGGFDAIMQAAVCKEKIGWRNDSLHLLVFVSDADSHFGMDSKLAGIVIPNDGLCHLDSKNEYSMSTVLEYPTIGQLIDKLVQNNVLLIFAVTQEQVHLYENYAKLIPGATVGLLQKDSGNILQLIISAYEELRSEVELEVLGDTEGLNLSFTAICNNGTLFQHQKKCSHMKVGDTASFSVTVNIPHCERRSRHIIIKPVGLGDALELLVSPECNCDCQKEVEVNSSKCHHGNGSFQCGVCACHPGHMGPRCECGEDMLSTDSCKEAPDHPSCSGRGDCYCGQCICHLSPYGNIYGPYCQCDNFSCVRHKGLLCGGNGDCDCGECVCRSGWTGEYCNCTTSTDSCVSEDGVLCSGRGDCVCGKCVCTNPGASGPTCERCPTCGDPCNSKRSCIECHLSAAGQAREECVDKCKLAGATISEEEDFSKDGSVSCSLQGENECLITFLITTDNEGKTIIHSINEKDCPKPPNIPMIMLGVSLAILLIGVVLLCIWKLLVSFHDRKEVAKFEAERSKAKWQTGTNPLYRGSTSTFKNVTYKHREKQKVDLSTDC

4B4 (antibody)
Binding Geomean [1]: 362
Geo Mean on Macaque T-cells IgG detection [2]: 141

Human IgG2 (antibody)
X Geo Mean [3]: 12
Binding Geomean [4]: 2.84
Ratio (α5β1 expressing B300.19 cells against B300.19 cells) [5]: 0.8

Human IgG2/4 (antibody)
Geo Mean on Macaque T-cells IgG detection (Macaque α5β1 (Macaque) [6]): 3

Human IgG4 (antibody)
Binding Geomean [4]: 3.2

L230 (antibody)
Geo Mean on Macaque T-cells IgG detection [7]: 3
Binding Geomean (αv integrin chain): 294

MAB2077Z (antibody)
Binding Geomean (αvβ6 integrin): 39.2

Mouse IgG1 (antibody)
X Geo Mean [3]: 14.9
Binding Geomean [8]: 2.55
Geo Mean on Macaque T-cells IgG detection (Macaque α5β1 (Macaque) [9]): 2
Ratio (α5β1 expressing B300.19 cells against B300.19 cells) [5]: 0.9

Mouse IgG2a (antibody)
Binding Geomean [8]: 10.2

mAb 1969 (antibody)
X Geo Mean [10]: 152
X Geo Mean [3]: 194
X Geo Mean [11]: 45.1
Binding Geomean [12]: 2.69
Ratio (α5β1 expressing B300.19 cells against B300.19 cells) [13]: 6.9
Ratio (α5β1 expressing B300.19 cells against B300.19 cells) [5]: 9.5
Ratio (α5β1 expressing B300.19 cells against B300.19 cells) [14]: 2.5
